Results as given in patent publication US6962972B2, “Derivatization of proteins” (Lipoxen Technologies Limited, priority 2000, dated 2005).

Key:
[1] = Hanes Woolf plot at different concentrations of hydrogen peroxide (Km); assay type: biochemical; conditions: substrate hydrogen peroxide, read-out: Km (substrate concentration at which the reaction rate is half of its maximal value)
Description: (§1) Catalase is a tetrameric haemprotein that catalyses the degradation of hydrogen peroxide to oxygen and water. The reaction can be used to determine enzyme activity. The reaction is a first order reaction, whereby the amount of peroxide substrate decomposed is directly proportional to the concentration of both substrate and enzyme. Provided the concentration of substrate is constant between experiments, any difference in decomposition rate will therefore be a function of enzyme activity present. In the present examples, the drop in absorbance hydrogen peroxide at […] from 0.450 to 0.400, corresponding to the decomposition of 3.45 μ moles of hydrogen peroxide in a cuvette having a reaction volume of 3 ml, is determined.
Native catalase, catalase derivitised using 1×10^−3M SDS, for a reaction period of 48 hours, and catalase derivatised using the same reaction time but in the absence of SDS, were compared at different concentrations of hydrogen peroxide to form Hanes Woolf plot.

[2] = Catalase determination (enzyme activity: time for hydrogen peroxide absorbance to drop from 0.450 to 0.400); assay type: biochemical; conditions: for Time for Δ Ab: absorbance drop 0.45 to 0.40
Description: as §1
The derivatised catalase compounds were also tested against native catalase for their enzyme activity. The results for catalase alone in FIG. 3 show the effect of subjecting catalase to the reaction conditions but without the addition of activated colominic acid. […] The […] is greater when the polysialylation takes place in the presence of SDS.
The derivatised catalase products were assessed for their catalase activity using the general test described above. The times taken for the enzymes to reduce the absorbance from 0.45 to 0.40 are shown in table 1 as compared to native catalase.

Time for Δ Ab ([2]; Concentration SDS 0 %) [min]	Time for Δ Ab ([2]; SDS 0.01 % in derivatisation, 48 hours) [min]	Time for Δ Ab ([2]; SDS 0.02 % in derivatisation, 48 hours) [min]	Time for Δ Ab ([2]; SDS 0.029 % (1×10^−3M) in derivatisation, 48 hours) [min]	Molecule	Km [1] [mM]	enzyme activity (FIG. 3) ([2]; after the derivatisation reaction conditions, up to 48 hours at 35 to 40° C.)
4				native catalase: tetrameric haemprotein enzyme from Sigma, used as model protein, underivatised (protein, UniProt P00432 2-527, looked up) Catalase: ADNRDPASDQMKHWKEQRAAQKPDVLTTGGGNPVGDKLNSLTVGPRGPLLVQDVVFTDEMAHFDRERIPERVVHAKGAGAFGYFEVTHDITRYSKAKVFEHIGKRTPIAVRFSTVAGESGSADTVRDPRGFAVKFYTEDGNWDLVGNNTPIFFIRDALLFPSFIHSQKRNPQTHLKDPDMVWDFWSLRPESLHQVSFLFSDRGIPDGHRHMNGYGSHTFKLVNANGEAVYCKFHYKTDQGIKNLSVEDAARLAHEDPDYGLRDLFNAIATGNYPSWTLYIQVMTFSEAEIFPFNPFDLTKVWPHGDYPLIPVGKLVLNRNPVNYFAEVEQLAFDPSNMPPGIEPSPDKMLQGRLFAYPDTHRHRLGPNYLQIPVNCPYRARVANYQRDGPMCMMDNQGGAPNYYPNSFSAPEHQPSALEHRTHFSGDVQRFNSANDDNVTQVRTFYLKVLNEEQRKRLCENIAGHLKDAQLFIQKKAVKNFSDVHPEYGSRIQALLDKYNEEKPKNAVHTYVQHGSHLSAREKANL	84	catalase activity is lost under those conditions
	13	21	44	derivatised catalase: catalase derivatised with activated colominic acid for 48 hours in the presence of SDS at 0.01, 0.02 or 0.029 % by weight (conjugate, UniProt P00432 2-527, looked up, colominic acid conjugate) Catalase: ADNRDPASDQMKHWKEQRAAQKPDVLTTGGGNPVGDKLNSLTVGPRGPLLVQDVVFTDEMAHFDRERIPERVVHAKGAGAFGYFEVTHDITRYSKAKVFEHIGKRTPIAVRFSTVAGESGSADTVRDPRGFAVKFYTEDGNWDLVGNNTPIFFIRDALLFPSFIHSQKRNPQTHLKDPDMVWDFWSLRPESLHQVSFLFSDRGIPDGHRHMNGYGSHTFKLVNANGEAVYCKFHYKTDQGIKNLSVEDAARLAHEDPDYGLRDLFNAIATGNYPSWTLYIQVMTFSEAEIFPFNPFDLTKVWPHGDYPLIPVGKLVLNRNPVNYFAEVEQLAFDPSNMPPGIEPSPDKMLQGRLFAYPDTHRHRLGPNYLQIPVNCPYRARVANYQRDGPMCMMDNQGGAPNYYPNSFSAPEHQPSALEHRTHFSGDVQRFNSANDDNVTQVRTFYLKVLNEEQRKRLCENIAGHLKDAQLFIQKKAVKNFSDVHPEYGSRIQALLDKYNEEKPKNAVHTYVQHGSHLSAREKANL		
